Measured values as given in patent publication US20150322135A1 (Pfizer, published 2015).
Where a chain is given by its changes, count along the chain named. Numbers in names are those of the source. Values belong to the binder of their own block, whether it stands above or below them.

Key:
Mouse FcRn protein [1] = biological target: T1, Mouse FcRn protein (mouse, UniProt Q61559 22-297); assay: SPR pH-switch assay: mouse FcRn immobilised, variant bound at pH 6.0, percent bound in the dissociation phase at neutral pH against pH 6.0
T1 construct: Bought protein; called soluble in the 1-to-1 assay and amine-coupled to the chip in the avidity and pH-switch assays; also called soluble mouse FcRn protein; neonatal Fc receptor
T1 sequence (Q61559 22-297): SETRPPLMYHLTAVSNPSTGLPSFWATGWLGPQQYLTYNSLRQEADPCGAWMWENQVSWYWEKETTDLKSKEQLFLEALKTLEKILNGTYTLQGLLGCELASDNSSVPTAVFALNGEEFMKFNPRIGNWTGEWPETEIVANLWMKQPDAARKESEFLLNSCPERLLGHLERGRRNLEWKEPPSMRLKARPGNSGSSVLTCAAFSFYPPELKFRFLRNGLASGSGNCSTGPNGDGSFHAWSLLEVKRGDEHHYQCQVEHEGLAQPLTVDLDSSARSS
Procedure: (§1) The FcRn binding assays were carried out using a surface plasmon resonance (SPR) biosensor, Biacore 3000 (Biacore, Uppsala, Sweden). The sensor chip CM5, surfactant P20, N-ethyl-N-(3-dimethylaminopropyl)carbodiimide (EDC), N-hydroxysuccinimide (NHS), and 1 M ethanolamine (pH 8.5) were purchased from GE Healthcare (Piscataway, N.J.). The SPR experiments were conducted at 25° C. in PBS buffer (pH 6.0) with 0.005% P20. A Mouse FcRn protein was purchased from ARVYS Proteins, Inc. (Stamford, Conn.). All the experiments were repeated three times.
pH-Switch Assay: In order to evaluate the efficiency of dissociation of Fab-monoFc variants from FcRn at neutral pH, the “pH-switch assay” modified from the method that was previously reported was employed. See, e.g., Wang et al., Drug Metab. Dispos. 39, 1469-1477 (2011). In this assay, mouse FcRn protein was immobilized on a CM5 sensor chip by the amine coupling method. The binding was measured by injecting 100 uM of Fab-monoFc variants in running buffer (PBS, pH 6.0) followed by injection of either running buffer (PBS, pH 6.0) or neutral buffer (PBS, pH 7.2) alone over the FcRn surface at flow rate of 50 μL/min.

Mouse FcRn protein [2] = biological target: T1, Mouse FcRn protein; assay: SPR 1-to-1 format: variant amine-coupled to CM5 chip, soluble mouse FcRn injected, pH 6.0, steady state
Procedure: as §1
1-to-1 binding Assay—Immobilization of engineered N-glycosylated Fc variants or Fab-mono engineered N-glycosylated Fc variants on a CM5 sensor chip was conducted by the amine coupling method. Briefly, 20 μM protein solution was diluted 20 times in 10 mM acetate (pH 4.5) and injected onto a biosensor surface which had been pre-activated with a 20 uL injection of 1:1 mixture of 200 mM EDC and 50 mM NHS, followed by the injection of 1 M ethanolamine-HCl (pH 8.5). For reference surface, one flow cell was activated by the EDC-NHS mixture and deactivated by ethanol amine without protein. The equilibrium binding was measured by injecting 150 uL of soluble mouse FcRn protein at flow rate of 5 uL/min. The sensor surfaces were regenerated by running PBS buffer (pH 7.2) for 1 min. We observed that all the binding curves of each concentration reached the plateau at the end of injection (30 min).

Mouse FcRn protein [3] = biological target: T1, Mouse FcRn protein; assay: SPR avidity format: mouse FcRn immobilised on CM5 chip, variant injected, pH 6.0, steady state
Procedure: as §1
(§2) Avidity Assay: —In order to assess the avidity of analyte (molecule in mobile phase), the SPR-based “avidity assay format” was performed as previously described. See, e.g., Zalevsky et al., Nature Biotech. 28, 157-159; Yeung et al., J. Immunol. 182, 7663-7671 (2009); and Suzuki et al., J. Immunol. 184, 1968-1976 (2010). That is, mouse FcRn protein was immobilized on a CM5 sensor chip by the amine coupling method as described above. The equilibrium binding was measured by injecting 30 μL, of Fab-monoFc variants over the FcRn surface at flow rate of 2 μL/min. The sensor surfaces were regenerated by running 100 mM tris-HCl, pH 8.0 for 1 min.

Mouse FcRn protein [4] = biological target: T1, Mouse FcRn protein; assay: SPR avidity format: FcRn localized on the chip surface
Procedure: as §1, §2

B2: Fab-CH23 (Fab-CH23-N364/N407), Fab of an anti-KLH antibody fused to CH23 (Fc fusion)
heavy: EVQLVESGGGLVQPGGSLRLSCAASGFTFSNYDMYWVRQTTGKGLEWVSAIGTAGDTYYPGSVKGRFTISRENAKNSLYLQMNSLRAGDTAVYYCAREKSSTSAFDYWGQGTLVTVSSASTKGPSVFPLAPSSKSTSGGTAALGCLVKDYFPEPVTVSWNSGALTSGVHTFPAVLQSSGLYSLSSVVTVPSSSLGTQTYICNVNHKPSNTKVDKKVEPKSCDKTHTGGGGSGGGGSGGPSVFLFPPKPKDTLMISRTPEVTCVVVDVSHEDPEVKFNWYVDGVEVHNAKTKPREEQYNSTYRVVSVLTVLHQDWLNGKEYKCKVSNKALPAPIEKTISKAKGQPREPQVYTLPPSREEMTKNQVNLTCLVKGFYPSDIAVEWESNGQPENNYKTTPPVLDSDGSFFLNSTLTVDKSRWQQGNVFSCSVMHEALHNHYTQKSLSLSPGK
light: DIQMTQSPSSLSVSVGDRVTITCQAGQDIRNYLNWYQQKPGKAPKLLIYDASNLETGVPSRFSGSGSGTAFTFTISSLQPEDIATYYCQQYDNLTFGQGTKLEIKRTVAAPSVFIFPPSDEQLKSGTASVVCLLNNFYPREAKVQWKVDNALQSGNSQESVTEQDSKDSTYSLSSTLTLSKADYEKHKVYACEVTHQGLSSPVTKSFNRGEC
modifications: N-linked glycans at Asn297 (natural) and engineered Asn364 and Asn407 (EU numbering)
notes: also called Fab-monoFc
- % bound (Mouse FcRn protein [1]): 5.6%
- Kd (Mouse FcRn protein [2]): 250 nM
- Kd (Mouse FcRn protein [3]): 180 nM

B4: Fab-CH23-CH23 (tandem CH23 construct comprising two engineered Fc polypeptides) (Fc fusion)
heavy: EVQLVESGGGLVQPGGSLRLSCAASGFTFSNYDMYWVRQTTGKGLEWVSAIGTAGDTYYPGSVKGRFTISRENAKNSLYLQMNSLRAGDTAVYYCAREKSSTSAFDYWGQGTLVTVSSASTKGPSVFPLAPSSKSTSGGTAALGCLVKDYFPEPVTVSWNSGALTSGVHTFPAVLQSSGLYSLSSVVTVPSSSLGTQTYICNVNHKPSNTKVDKKVEPKSCDKTHTGGGGSGGGGSGGPSVFLFPPKPKDTLMISRTPEVTCVVVDVSHEDPEVKFNWYVDGVEVHNAKTKPREEQYNSTYRVVSVLTVLHQDWLNGKEYKCKVSNKALPAPIEKTISKAKGQPREPQVYTLPPSREEMTKNQVNLTCLVKGFYPSDIAVEWESNGQPENNYKTTPPVLDSDGSFFLNSTLTVDKSRWQQGNVFSCSVMHEALHNHYTQKSLSLSPGGGGSGGGGSGGGGSGGGGSGGPSVFLFPPKPKDTLMISRTPEVTCVVVDVSHEDPEVKFNWYVDGVEVHNAKTKPREEQYNSTYRVVSVLTVLHQDWLNGKEYKCKVSNKALPAPIEKTISKAKGQPREPQVYTLPPSREEMTKNQVNLTCLVKGFYPSDIAVEWESNGQPENNYKTTPPVLDSDGSFFLNSTLTVDKSRWQQGNVFSCSVMHEALHNHYTQKSLSLSPGK
light: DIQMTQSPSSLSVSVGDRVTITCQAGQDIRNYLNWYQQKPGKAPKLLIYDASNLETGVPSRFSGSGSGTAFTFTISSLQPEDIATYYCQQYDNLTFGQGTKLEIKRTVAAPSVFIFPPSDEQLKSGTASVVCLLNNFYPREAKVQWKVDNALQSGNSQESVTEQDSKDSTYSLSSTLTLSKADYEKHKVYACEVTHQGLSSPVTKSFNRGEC
modifications: N-linked glycans at Asn297 (natural) and engineered Asn364 and Asn407 (EU numbering) in each of the two CH23 units
notes: Made in CHO cells; also called Fab-CH23-4XGS-CH23; tandem CH23-CH23
- % bound (Mouse FcRn protein [1]): 14%
- fold higher affinity than Fab-CH23 (avidity assay) (Mouse FcRn protein [4]): ~40 fold
- Kd (Mouse FcRn protein [2]): 250 nM
- Kd (Mouse FcRn protein [3]): 4.5 nM

Stronger by Kd (Mouse FcRn protein [2]), values ahead:

- % bound (Mouse FcRn protein [1]): 1.1%
- Kd (Mouse FcRn protein [2]): 230 nM
- Kd (Mouse FcRn protein [3]): 180 nM
B1: Fab-CH23-HEK (Fab-CH23 [N364/N407] produced from HEK293 transient expression system) (Fc fusion)
heavy: B2 heavy
light: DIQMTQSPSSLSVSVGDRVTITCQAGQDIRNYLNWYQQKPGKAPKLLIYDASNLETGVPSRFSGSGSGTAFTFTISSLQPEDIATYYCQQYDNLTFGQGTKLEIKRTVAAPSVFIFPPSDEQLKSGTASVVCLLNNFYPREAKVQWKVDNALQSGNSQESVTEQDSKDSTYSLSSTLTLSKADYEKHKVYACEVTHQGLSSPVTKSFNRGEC
modifications: N-linked glycans at Asn297 (natural) and engineered Asn364 and Asn407 (EU numbering), HEK293 glycoform
notes: Same construct as Fab-CH23, made in HEK293 cells instead of CHO cells

- % bound (Mouse FcRn protein [1]): 20%
- Kd (Mouse FcRn protein [2]): 68 nM
- Kd (Mouse FcRn protein [3]): 35 nM
B3: Fab-CH23[M428L/N434S] (FcRn enhancement variant) (Fc fusion)
heavy: B2 heavy with M429L, N435S
light: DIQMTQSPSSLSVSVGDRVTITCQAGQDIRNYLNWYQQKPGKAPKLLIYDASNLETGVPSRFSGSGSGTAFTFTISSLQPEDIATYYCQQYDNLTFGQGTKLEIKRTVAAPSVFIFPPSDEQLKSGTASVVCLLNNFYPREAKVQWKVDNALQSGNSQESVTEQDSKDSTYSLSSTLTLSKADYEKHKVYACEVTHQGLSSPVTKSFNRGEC
modifications: N-linked glycans at Asn297 (natural) and engineered Asn364 and Asn407 (EU numbering)
notes: Made in CHO cells; also called Fab-CH23 [M428L/N434L]
